Assay results from PMC8639777 (Nature, 2021).

Columns and labels:
Experiment in all cases: BLI
[1] = target: human ALK GRD (678-1030) Y966R (human, UniProt Q9UM73 678-1030, Y966R)
[2] = target: human ALK glycine-rich domain (GRD), residues 678-1030, wild type (human, UniProt Q9UM73 678-1030)
[3] = target: human ALK GRD (678-1030) E978R (human, UniProt Q9UM73 678-1030, E978R)
[4] = target: human ALK GRD (678-1030) E974R (human, UniProt Q9UM73 678-1030, E974R)
Chain of human ALK GRD (678-1030) E974R (Q9UM73 678-1030 E974R): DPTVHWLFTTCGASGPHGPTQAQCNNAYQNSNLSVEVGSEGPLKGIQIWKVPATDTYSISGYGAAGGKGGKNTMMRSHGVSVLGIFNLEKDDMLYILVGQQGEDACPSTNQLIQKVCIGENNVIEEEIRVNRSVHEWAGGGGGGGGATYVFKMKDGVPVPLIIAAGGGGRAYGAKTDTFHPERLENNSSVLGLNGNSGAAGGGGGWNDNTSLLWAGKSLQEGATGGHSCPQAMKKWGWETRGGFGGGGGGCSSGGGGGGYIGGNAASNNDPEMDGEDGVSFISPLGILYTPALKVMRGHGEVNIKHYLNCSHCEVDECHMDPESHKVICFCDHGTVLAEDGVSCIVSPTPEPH

Chain of human ALK glycine-rich domain (GRD), residues 678-1030, wild type (Q9UM73 678-1030): as the sequence (Q9UM73 678-1030 E974R) above, with R297E counted along it
Chain of human ALK GRD (678-1030) Y966R (Q9UM73 678-1030 Y966R): as the sequence (Q9UM73 678-1030 E974R) above, with Y289R, R297E counted along it
Chain of human ALK GRD (678-1030) E978R (Q9UM73 678-1030 E978R): as the sequence (Q9UM73 678-1030 E974R) above, with R297E, E301R counted along it

| Binder | Kd [1] [nM] | Kd [2] [nM] | Kd [3] [nM] | Kd [4] [nM] |
| --- | --- | --- | --- | --- |
| human ALKAL2 ALKAL domain (ALKAL2-AD), residues 71-152, wild type (ligand, UniProt Q6UX46 71-152, looked up) AEAAGLGPSPEQRVEIVPRDLRMKDKFLKHLTGPLYFSPKCSKHFHRLYHNTRDCTIPAYYKRCARLLTRLAVSPVCMEDKQ | 5120 | 329 | 6110 | 1410 |
| human ALKAL2-AD (71-152) R140E (ligand, UniProt Q6UX46 71-152, looked up) AEAAGLGPSPEQRVEIVPRDLRMKDKFLKHLTGPLYFSPKCSKHFHRLYHNTRDCTIPAYYKRCARLLTELAVSPVCMEDKQ |  | 2950 |  |  |
| human ALKAL2-AD (71-152) R123E (ligand, UniProt Q6UX46 71-152, looked up) AEAAGLGPSPEQRVEIVPRDLRMKDKFLKHLTGPLYFSPKCSKHFHRLYHNTEDCTIPAYYKRCARLLTRLAVSPVCMEDKQ |  | 391 |  |  |
